Measurements: publication PMC5717197, “Mechanistic insight into TRIP13-catalyzed Mad2 structural transition and spindle checkpoint silencing” (Nature Communications, 2017)

How the values were obtained:
[1] = target: T1, His6-Mad2 (containing the C79S and C106S mutations) (human, UniProt Q13257 1-205, C79S | C106S); assay: pull-down; Mad2 dissociation assay: MBP1 or Cdc20N coupled to SulfoLink resin, loaded with His6-Mad2 (0.5 mg/ml), washed, then TRIP13 and ΔN35-p31comet with 1 mM ATP for 30-60 min; Reaction Buffer (25 mM Tris pH 7.5, 200 mM NaCl, 10 mM MgCl2, 1 mM DTT, 5% glycerol, 0.05% Tween), room temperature; bound proteins by SDS-PAGE and Coomassie; conditions: both partners purified
T1 construct: Mad2, human; C79S and C106S to avoid disulfide formation in vitro; The His6 tag was not cleaved; also called C-Mad2; source: E. coli BL21 (DE3), purified (Ni-NTA, Resource Q, Superdex 200 Increase); not shown: His6, N-terminal, kept

[2] = target: the molecule itself; assay: SEC; gel filtration column in the presence of ATP

T1 sequence (Q13257 whole entry C79S/C106S): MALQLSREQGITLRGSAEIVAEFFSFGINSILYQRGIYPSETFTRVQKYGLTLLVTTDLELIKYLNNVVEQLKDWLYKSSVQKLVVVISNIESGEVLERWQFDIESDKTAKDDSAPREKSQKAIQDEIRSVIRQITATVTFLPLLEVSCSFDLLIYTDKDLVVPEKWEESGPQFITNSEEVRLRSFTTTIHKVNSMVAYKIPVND

binding result [1] | Binder | binding result [2]
binds | Cdc20N-His6 (residues 1-170 of human Cdc20) (domain or fragment, UniProt Q12834 1-170, looked up, Cdc20, human, residues 1-170; Coupled to SulfoLink Coupling Resin in the bead assays; also called Cdc20 N-terminal 170-residue fragment; source: E. coli BL21 (DE3), purified from 8 M urea (Ni-NTA), dialysed) MAQFAFESDLHSLLQLDAPIPNAPPARWQRKAKEAAGPAPSPMRAANRSHSAGRTPGRTPGKSSSKVQTTPSKPGGDRYIPHRSAAQMEVASFLLSKENQPENSQTPTKKEHQKAWALNLNGFDVEEAKILRLSGKPQNAPEGYQNRLKVLYSQKATPGSSRKTCRYIPS | –
binds | SWYSYPPPQRAVC (Coupled to SulfoLink Coupling Resin in the bead assays; source: synthetic peptide (Protein Chemistry Technology Core, UTSW)) [MBP1 peptide] | –
– | TRIP13 wild type (enzyme, human, UniProt Q15645 1-432, looked up, TRIP13, human; its own AUC and gel filtration show no discrete oligomer; also called TRIP13 WT; source: E. coli BL21 (DE3), purified (Ni-NTA, TEV, Resource Q, Superdex 200); not shown: His6, N-terminal, cleaved) MDEAVGDLKQALPCVAESPTVHVEVHQRGSSTAKKEDINLSVRKLLNRHNIVFGDYTWTEFDEPFLTRNVQSVSIIDTELKVKDSQPIDLSACTVALHIFQLNEDGPSSENLEEETENIIAANHWVLPAAEFHGLWDSLVYDVEVKSHLLDYVMTTLLFSDKNVNSNLITWNRVVLLHGPPGTGKTSLCKALAQKLTIRLSSRYRYGQLIEINSHSLFSKWFSESGKLVTKMFQKIQDLIDDKDALVFVLIDEVESLTAARNACRAGTEPSDAIRVVNAVLTQIDQIKRHSNVVILTTSNITEKIDVAFVDRADIKQYIGPPSAAAIFKIYLSCLEELMKCQIIYPRQQLLTLRELEMIGFIENNVSKLSLLLNDISRKSEGLSGRVLRKLPFLAHALYVQAPTVTIEGFLQALSLAVDKQFEERKKLAAYI | binds
– | TRIP13 G320A (enzyme, human, UniProt Q15645 1-432, looked up, TRIP13, human; source: E. coli BL21 (DE3), purified (Ni-NTA, TEV, Resource Q, Superdex 200); not shown: His6, N-terminal, cleaved) MDEAVGDLKQALPCVAESPTVHVEVHQRGSSTAKKEDINLSVRKLLNRHNIVFGDYTWTEFDEPFLTRNVQSVSIIDTELKVKDSQPIDLSACTVALHIFQLNEDGPSSENLEEETENIIAANHWVLPAAEFHGLWDSLVYDVEVKSHLLDYVMTTLLFSDKNVNSNLITWNRVVLLHGPPGTGKTSLCKALAQKLTIRLSSRYRYGQLIEINSHSLFSKWFSESGKLVTKMFQKIQDLIDDKDALVFVLIDEVESLTAARNACRAGTEPSDAIRVVNAVLTQIDQIKRHSNVVILTTSNITEKIDVAFVDRADIKQYIAPPSAAAIFKIYLSCLEELMKCQIIYPRQQLLTLRELEMIGFIENNVSKLSLLLNDISRKSEGLSGRVLRKLPFLAHALYVQAPTVTIEGFLQALSLAVDKQFEERKKLAAYI | binds
